Test results as given in patent US8242083B2, “Kinase substrates” (PerkinElmer Health Sciences, Inc., priority 2008, dated 2012).

Tests used:
Assay type in all cases: biochemical
TXK = target: T1, TXK (Homo sapiens, UniProt P42681); assay: TR-FRET kinase assay, TXK; conditions: Kinase Concentration 3 nM; 50 nM ULight-labeled substrate, 200 micromolar ATP, 2 hours
T1 sequence (P42681 1-527): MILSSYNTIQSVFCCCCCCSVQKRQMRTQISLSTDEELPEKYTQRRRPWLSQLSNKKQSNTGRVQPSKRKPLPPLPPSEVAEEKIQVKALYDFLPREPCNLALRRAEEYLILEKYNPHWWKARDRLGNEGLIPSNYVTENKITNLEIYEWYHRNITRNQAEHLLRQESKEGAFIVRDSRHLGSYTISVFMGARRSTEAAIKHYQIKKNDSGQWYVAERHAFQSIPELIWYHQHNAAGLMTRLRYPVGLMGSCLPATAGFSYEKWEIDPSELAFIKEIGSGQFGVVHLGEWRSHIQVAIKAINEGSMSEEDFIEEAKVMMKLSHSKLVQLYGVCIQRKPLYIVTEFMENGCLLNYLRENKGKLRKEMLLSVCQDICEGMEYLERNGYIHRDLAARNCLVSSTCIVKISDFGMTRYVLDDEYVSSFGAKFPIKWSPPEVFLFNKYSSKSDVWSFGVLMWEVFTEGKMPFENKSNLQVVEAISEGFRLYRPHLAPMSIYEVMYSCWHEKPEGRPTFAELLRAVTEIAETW
Description: (§1) TR-FRET kinase assays are performed under standardized conditions: various individual kinases are incubated with 50 nM of kinase substrate BRB1 labeled with the TR-FRET acceptor dye ULight (PerkinElmer) and 200 micromolar ATP in 10 μL of kinase assay buffer (50 mM HEPES pH7.5, 10 mM MgCl2, 3 mM MnCl2, 1 mM EGTA, 2 mM DTT and 0.01% Tween-20) for 2 hours at room temperature. Reactions are stopped with EDTA, and anti-phospho-tyrosine antibodies (clone PT66) labeled with the TR-FRET europium chelate donor dye are added to a final concentration of 2 nM in a final volume of 20 μL. The TR-FRET signal emitted at 665 nm is read one hour after the addition of antibodies using a TR-FRET plate reader such as the Envision® Multilabel Plate reader (PerkinElmer). The emitted signal at 665 nm is proportional to the extent of peptide phosphorylation, Control reactions indicative of background are performed excluding ATP from the reaction.
(§2) Assay conditions are identical to those used described for FIG. 1.

EphB2 = target: T2, EphB2 (Homo sapiens, UniProt P29323); assay: TR-FRET kinase assay, EphB2; conditions: Kinase Concentration 0.25 nM; 50 nM ULight-labeled substrate, 200 micromolar ATP, 2 hours
T2 sequence (P29323 19-1055): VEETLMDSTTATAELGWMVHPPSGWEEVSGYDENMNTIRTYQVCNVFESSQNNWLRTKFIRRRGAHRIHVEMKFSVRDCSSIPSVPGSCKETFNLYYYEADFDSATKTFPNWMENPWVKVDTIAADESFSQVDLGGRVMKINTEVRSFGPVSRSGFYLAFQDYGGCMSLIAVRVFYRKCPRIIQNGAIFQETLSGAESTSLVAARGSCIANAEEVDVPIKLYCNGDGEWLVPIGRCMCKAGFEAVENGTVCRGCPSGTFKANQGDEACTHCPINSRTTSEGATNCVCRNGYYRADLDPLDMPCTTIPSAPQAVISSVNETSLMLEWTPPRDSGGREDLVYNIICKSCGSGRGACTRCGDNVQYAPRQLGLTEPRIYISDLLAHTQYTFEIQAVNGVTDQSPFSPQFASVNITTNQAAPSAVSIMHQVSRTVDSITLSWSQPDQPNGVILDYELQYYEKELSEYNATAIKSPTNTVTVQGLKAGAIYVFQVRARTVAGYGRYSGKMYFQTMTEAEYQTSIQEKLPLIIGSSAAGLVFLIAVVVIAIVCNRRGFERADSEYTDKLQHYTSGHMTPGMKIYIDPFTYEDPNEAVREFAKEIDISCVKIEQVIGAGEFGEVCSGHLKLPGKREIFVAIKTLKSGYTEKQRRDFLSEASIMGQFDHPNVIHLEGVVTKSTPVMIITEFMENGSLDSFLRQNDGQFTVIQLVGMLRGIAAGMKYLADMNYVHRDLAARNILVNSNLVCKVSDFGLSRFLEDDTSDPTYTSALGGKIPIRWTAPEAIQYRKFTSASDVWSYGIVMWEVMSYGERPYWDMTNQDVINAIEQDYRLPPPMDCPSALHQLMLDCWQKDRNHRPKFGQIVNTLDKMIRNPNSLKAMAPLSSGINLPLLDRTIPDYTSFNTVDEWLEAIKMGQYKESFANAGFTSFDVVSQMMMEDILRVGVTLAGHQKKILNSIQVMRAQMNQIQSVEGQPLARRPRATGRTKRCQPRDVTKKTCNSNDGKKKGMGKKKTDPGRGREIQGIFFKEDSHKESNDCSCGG
Description: as §1, §2

FGFR4 = FGFR4 (Homo sapiens, UniProt P22455); assay: TR-FRET kinase assay, FGFR4; conditions: Kinase Concentration 3 nM; 50 nM ULight-labeled substrate, 200 micromolar ATP, 2 hours
Description: as §1, §2

TRKA (NTRK1) = TRKA (NTRK1) (Homo sapiens, UniProt P04629); assay: TR-FRET kinase assay, TRKA (NTRK1); conditions: Kinase Concentration 0.5 nM; 50 nM ULight-labeled substrate, 200 micromolar ATP, 2 hours
Description: as §1, §2

FGR = FGR (Homo sapiens, UniProt P09769); assay: TR-FRET kinase assay, FGR; conditions: Kinase Concentration 0.1 nM; 50 nM ULight-labeled substrate, 200 micromolar ATP, 2 hours
Description: as §1, §2

ROR1 = ROR1 (Homo sapiens, UniProt Q01973); assay: TR-FRET kinase assay, ROR1; conditions: Kinase Concentration 20 nM; 50 nM ULight-labeled substrate, 200 micromolar ATP, 2 hours
Description: as §1, §2

FGFR1 = FGFR1 (Homo sapiens, UniProt P11362); assay: TR-FRET kinase assay, FGFR1; conditions: Kinase Concentration 0.5 nM; 50 nM ULight-labeled substrate, 200 micromolar ATP, 2 hours
Description: as §1, §2

ACK = ACK (Homo sapiens, UniProt Q07912); assay: TR-FRET kinase assay, ACK; conditions: Kinase Concentration 20 nM; 50 nM ULight-labeled substrate, 200 micromolar ATP, 2 hours
Description: as §1, §2

FGFR1, sequence (P11362 22-822, species assumed): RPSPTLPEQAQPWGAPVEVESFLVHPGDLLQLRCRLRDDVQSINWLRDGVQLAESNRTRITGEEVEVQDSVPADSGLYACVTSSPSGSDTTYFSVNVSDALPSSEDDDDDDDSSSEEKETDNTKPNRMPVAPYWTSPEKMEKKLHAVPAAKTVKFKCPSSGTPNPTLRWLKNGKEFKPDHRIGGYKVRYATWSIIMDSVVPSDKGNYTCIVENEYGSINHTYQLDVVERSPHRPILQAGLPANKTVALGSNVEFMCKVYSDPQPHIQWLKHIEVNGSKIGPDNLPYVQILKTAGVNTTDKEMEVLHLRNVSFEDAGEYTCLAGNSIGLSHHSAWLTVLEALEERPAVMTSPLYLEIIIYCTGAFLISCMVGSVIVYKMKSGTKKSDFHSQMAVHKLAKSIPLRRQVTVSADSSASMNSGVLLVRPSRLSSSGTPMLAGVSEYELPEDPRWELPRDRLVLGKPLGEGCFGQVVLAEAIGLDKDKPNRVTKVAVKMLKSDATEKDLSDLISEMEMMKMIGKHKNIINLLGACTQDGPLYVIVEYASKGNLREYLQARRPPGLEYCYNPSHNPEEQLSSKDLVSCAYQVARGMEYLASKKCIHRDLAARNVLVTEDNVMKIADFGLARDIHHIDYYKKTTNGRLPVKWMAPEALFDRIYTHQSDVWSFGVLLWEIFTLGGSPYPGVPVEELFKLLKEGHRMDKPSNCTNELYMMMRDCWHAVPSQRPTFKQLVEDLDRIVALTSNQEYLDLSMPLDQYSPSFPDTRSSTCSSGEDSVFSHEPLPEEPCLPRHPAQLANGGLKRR
TRKA (NTRK1), sequence (P04629 33-796, species assumed): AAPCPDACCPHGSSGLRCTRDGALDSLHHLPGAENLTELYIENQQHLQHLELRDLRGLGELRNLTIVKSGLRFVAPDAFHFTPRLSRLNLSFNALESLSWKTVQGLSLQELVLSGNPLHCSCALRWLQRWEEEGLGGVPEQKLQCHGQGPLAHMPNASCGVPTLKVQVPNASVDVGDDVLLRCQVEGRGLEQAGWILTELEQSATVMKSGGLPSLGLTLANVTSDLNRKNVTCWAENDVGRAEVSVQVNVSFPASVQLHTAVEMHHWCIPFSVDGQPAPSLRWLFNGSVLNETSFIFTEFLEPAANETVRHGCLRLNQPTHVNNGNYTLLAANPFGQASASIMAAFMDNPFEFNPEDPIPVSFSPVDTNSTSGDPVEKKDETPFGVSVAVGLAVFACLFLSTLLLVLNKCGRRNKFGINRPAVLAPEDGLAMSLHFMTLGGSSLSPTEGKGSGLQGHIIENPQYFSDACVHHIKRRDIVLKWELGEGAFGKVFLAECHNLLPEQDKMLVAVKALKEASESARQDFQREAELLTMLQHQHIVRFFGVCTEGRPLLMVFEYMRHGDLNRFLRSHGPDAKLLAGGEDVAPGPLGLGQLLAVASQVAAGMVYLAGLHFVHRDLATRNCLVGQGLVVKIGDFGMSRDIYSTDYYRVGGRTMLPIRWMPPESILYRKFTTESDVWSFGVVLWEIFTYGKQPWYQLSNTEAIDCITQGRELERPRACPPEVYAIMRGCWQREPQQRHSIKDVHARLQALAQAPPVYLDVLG
ACK, sequence (Q07912 whole entry): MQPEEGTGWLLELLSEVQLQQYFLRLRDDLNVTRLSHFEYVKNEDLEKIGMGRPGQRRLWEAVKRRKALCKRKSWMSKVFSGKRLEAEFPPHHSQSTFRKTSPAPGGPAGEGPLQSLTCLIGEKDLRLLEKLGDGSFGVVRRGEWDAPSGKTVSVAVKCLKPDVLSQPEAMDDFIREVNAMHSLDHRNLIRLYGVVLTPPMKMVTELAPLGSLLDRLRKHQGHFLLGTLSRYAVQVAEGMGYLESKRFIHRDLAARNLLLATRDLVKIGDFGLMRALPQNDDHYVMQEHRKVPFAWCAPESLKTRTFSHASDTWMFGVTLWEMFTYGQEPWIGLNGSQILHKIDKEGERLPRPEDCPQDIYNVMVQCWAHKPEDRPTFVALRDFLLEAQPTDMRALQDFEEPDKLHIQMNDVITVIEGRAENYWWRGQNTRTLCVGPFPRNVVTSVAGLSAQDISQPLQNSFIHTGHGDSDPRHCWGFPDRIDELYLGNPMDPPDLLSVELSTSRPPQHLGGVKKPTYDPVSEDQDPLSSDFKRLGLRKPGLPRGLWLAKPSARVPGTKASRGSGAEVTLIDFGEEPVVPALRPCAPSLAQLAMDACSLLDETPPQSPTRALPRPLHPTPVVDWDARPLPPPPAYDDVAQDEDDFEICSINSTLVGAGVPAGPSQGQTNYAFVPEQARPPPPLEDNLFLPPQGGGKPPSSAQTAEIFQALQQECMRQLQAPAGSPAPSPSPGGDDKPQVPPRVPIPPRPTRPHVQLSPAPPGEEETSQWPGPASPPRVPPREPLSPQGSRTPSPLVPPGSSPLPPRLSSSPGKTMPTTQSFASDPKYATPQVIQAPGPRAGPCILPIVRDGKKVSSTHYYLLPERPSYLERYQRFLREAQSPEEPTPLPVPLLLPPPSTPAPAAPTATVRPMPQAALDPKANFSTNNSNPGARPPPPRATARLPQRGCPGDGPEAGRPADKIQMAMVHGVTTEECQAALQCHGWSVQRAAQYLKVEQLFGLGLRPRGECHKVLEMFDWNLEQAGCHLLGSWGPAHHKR

Sequence: C AYE AYE AYE K EYA EYA EYA K AYA EYE R (CAYEAYEAYEKEYAEYAEYAKAYAEYER; tyrosine kinase substrate peptide) [BRB1]
- Signal to Noise ratio with BRB1 Peptide (TXK): 5.9
- Signal to Noise ratio with BRB1 Peptide (EphB2): 28.8
- Signal to Noise ratio with BRB1 Peptide (FGFR4): 17.7
- Signal to Noise ratio with BRB1 Peptide (TRKA (NTRK1)): 23.2
- Signal to Noise ratio with BRB1 Peptide (FGR): 29.3
- Signal to Noise ratio with BRB1 Peptide (ROR1): 1.1
- Signal to Noise ratio with BRB1 Peptide (FGFR1): 26.4
- Signal to Noise ratio with BRB1 Peptide (ACK): 17.3
